Measurements from patent US20030032777A1, “Precursor polypeptide of phytosulfokine derived from Arabidopsis thaliana and a gene encoding said polypeptide” (priority 2001, published 2003).
Square brackets hold non-standard residues; d marks the D form. Ends that are not written are not given here. sY = N[C@@H](Cc1ccc(OS(=O)(=O)O)cc1)C(=O)O

B1: AtPSK2 gene: gene of 545 bases (SEQ ID NO: 2) encoding 87-amino-acid phytosulfokine precursor of Arabidopsis thaliana (nucleic acid, listed as Arabidopsis thaliana)
DNA: TTTAAGCATCTCTCTCCCTTCAAAGAAAATATCACAAAAATGGCAAACGTCTCCGCTTTGCTCACCATAGCTCTTCTCCTTTGCTCCACGCTAATGTGCACTGCCCGCCCCGAACCGGCCATCTCCATCTCTATCACGACTGCTGCCGATCCATGTAACATGGAGAAGAAGATAGAAGGAAAATTAGATGACATGCATATGGTAGACGAAAACTGTGGTGCAGACGACGAAGATTGCTTAATGAGGAGGACTTTGGTCGCTCATACTGATTACATCTATACCCAGAAGAAGAAGCATCCTTGATTTTCACTTACTCATTTCTAACAAACTTTTGCTCAAGATTATGTAATTTATGTCATCCTTAATTAGTATTTGTCACATACAAGATCAAGATAGTTATGATTGTGATTATTTATATGTATTTTGGATGATATATTGTAGAACTAGAAGTTTGACAATAAAAAGTTTATAGTGTCGTTGTATGTTTAAGAAGTTTGACAATAAAAACTTTATAGTGTTGTTGCAAAAAAAAAAAAAAAAAAAAA
B2: AtPSKL gene: gene of 479 bases (SEQ ID NO: 4) encoding 79-amino-acid phytosulfokine precursor of Arabidopsis thaliana (nucleic acid, listed as Arabidopsis thaliana)
DNA: CTTCTCAGGCTCCCATTATCTTTCTCTATTTTGCAAATCAGTATGGGTAAGTTCACAACCATTTTCATCATGGCTCTCCTTCTTTGCTCTACGCTAACCTACGCAGCAAGGCTGACTCCGACGACAACCACCGCTTTGTCCAGAGAAAACTCCGTCAAGGAAATTGAAGGAGACAAGGTTGAAGAAGAAAGCTGCAACGGAATTGGAGAAGAAGAATGTTTGATAAGACGAAGCCTTCTTCTTCACACCGATTACATTTATACTCAGAATCACAAGCCCTAAGTTTCTGTATTAGAGCAATTAATTAACTAATTACATTATCAAACCTATCACTGTAGTACTTTCTGTTTTCTGTTCGTCTTTTTTGTTTTGTTTTGTTTATGTTATCGCTATTTTAAAGTTTCATTGTTATTTTGAAAGTTCTTACACCATCATTATTGATAGTCTCTTAAAACAAAAAAAAAAAAAAAAAAAAAAAA

Assays:
plant cell = conditions: relative to PSK-α; cited from earlier work
[1] = system: Arabidopsis cultured cells; assay: Rate of cell division / proliferation of transgenic cells; format: cell-based, Arabidopsis thaliana; conditions: for Cell proliferation of transformed Arabidopsis cultured cells: cells transformed by the gene
Protocol: Constructs were transformed into Agrobacterium tumefaciens (C58C1Rif^R) by triparental mating (Van Haute et al., 1983), and Agrobacterium-mediated transformation of roots of Arabidopsis Columbia ecotype was essentially as described (Valvekens et al., 1988). Transgenic microcalli were generated by incubating co-cultivated root explants for 3 weeks on the callus induction medium (B5+0.5 mg/l 2,4-D and 0.05 mg/l KIN) supplemented with 50 mg/l Kan sulphate (Life Technologies, Grand Island, N.Y., USA) and 750 mg/l vancomycin hydrochloride (Wako, Osaka, Japan). The individual regenerating microcalli were transferred to fresh medium to ensure that all transformants were due to independent T-DNA insertions. To detect the introduced genes, genomic DNA was isolated from transgenic calli, digested with BamHI, and allowed to hybridize with the labeled cDNA as described above. Arabidopsis cells transformed with the binary vector alone served as controls.
To examine whether AtPSK2 and AtPSKL indeed code for precursors to PSK, we transformed 28-day-old Arabidopsis roots with artificially mutated AtPSK2 or AtPSKL cDNAs in the sense orientation designed to produce [Ser^4]PSK-α instead of PSK-α, and the wild-type cDNAs in sense and antisense orientations, respectively. The chimeric genes were placed under the control of the constitutive cauliflower mosaic virus (CaMV) 35S promoter incorporated within the binary vector pMAT037 (Matsuoka and Nakamura, 1991). Arabidopsis cells transformed with the binary vector alone served as controls. B5 medium (Gamborg et al., 1968) supplemented with 0.5 mg/L 2,4-dichlorophenoxyacetic acid (2,4-D) and 0.05 mg/L kinetin (KIN) was used to induce calli.
The rate of cell division was investigated on the transgenic cells. The results on AtPSK2 and AtPSKL are shown in FIGS. 12 and 13, respectively. In FIGS. 12 and 13, A indicates the result of the sense transgenic cells, B indicates the result of the control cells, C indicates the result of the antisense transgenic cells, respectively. […]

Arabidopsis cells = assay: LC/MS quantification of PSK analogs secreted into conditioned medium (CM) by transgenic cells; format: cell-based, Arabidopsis thaliana; conditions: cells transformed by the gene
From the text: A 22-mer primer (5′-[…]-3′) based on the nucleic acid sequence of the AtPSK2 cDNA and A 24-mer primer (5′-[…]-3′) based on the nucleic acid sequence of the AtPSKL cDNA were synthesized and used to obtain the mutated cDNAs that were designed to produce unnatural [Ser^4]PSK-α instead of PSK-α. Mutations were introduced with a LA PCR In Vitro Mutagenesis Kit (Takara) and confirmed by sequencing. The pMAT037 (Matsuoka and Nakamura, 1991) was employed as a binary vector for Arabidopsis root transformation. Original or mutated cDNAs were digested with SacI and HindIII or KpnI and inserted in-frame into the same sites of the vectors to construct chimeric genes harboring the cDNA in sense or antisense orientations, respectively. Expression of the chimeric genes was driven by the promoter of the CaMV 35S transcript.
Constructs were transformed into Agrobacterium tumefaciens (C58C1Rif^R) by triparental mating (Van Haute et al., 1983), and Agrobacterium-mediated transformation of roots of Arabidopsis Columbia ecotype was essentially as described (Valvekens et al., 1988). […]
Mass spectra were obtained using a Fisons VG platform quadruple mass spectrometer with electrospray ionization interfaced to a Jasco PU 980 HPLC system. […] The semiquantitative amounts of the PSK-α, PSK-β, [Ser^4]PSK-α and [Ser^4]PSK-β in CM were measured based on the peak heights without an internal standard. […]

Molecule | Cell proliferation activity compared to that of PSK-α (plant cell) | Effect of supplementation in the medium on decreased mitogenic activity of antisense transgenic cells ([1]; PSK-α added to medium of antisense transgenic cells) | Cell proliferation of transformed Arabidopsis cultured cells [1] | Secretion of PSK by transformed Arabidopsis cultured cells (Arabidopsis cells)
[sY]I[sY]T [PSK-β] | less than one-tenth | – | – | –
[sY]I[sY]TQ [PSK-α, reference compound] | – | alternated in part | – | –
B1 | – | – | cell proliferation was enhanced | could secret the PSK
B2 | – | – | cell proliferation was enhanced | could secret the PSK
